Paper PMC12866175 (European journal of nuclear medicine and molecular imaging, 2021)

Legend:
[1] = design: species or system BALB/c mice; conditions: mouse, in vivo
[2] = tested on: non-tumor-bearing BALB/c mice; assay: Toxicity, single intravenous injection, 5 months; format: in vivo

## C[C@@H](O)[C@H](NC(=O)[C@@H]1CSSC[C@H](NC(=O)[C@@H](Cc2ccccc2)NC(=O)CN2CCN(CC(=O)O)CCN(CC(=O)O)CCN(CC(=O)O)CC2)C(=O)N[C@@H](Cc2ccc(O)cc2)C(=O)N[C@H](Cc2c[nH]c3ccccc23)C(=O)N[C@@H](CCCCN)C(=O)N[C@@H]([C@@H](C)O)C(=O)N1)C(=O)O [[^225Ac]Ac-DOTA-TATE, metal not drawn]
[1]
  clearance of activity from the tissues: largely cleared
[2]; mouse, in vivo
  ALKP among the cohorts: No significant differences
  ALT among the cohorts: No significant differences
  AST among the cohorts: No significant differences
  Blood BUN: in the normal range
  Blood creatinine: in the normal range
  acute kidney damage by pathology: no acute kidney damage
  damage in the liver or other tissues by pathology: no treatment related damage
[2]; to 5 months p.i.
  survival: all animals survived
